This is an account of results in patent US20250333514A1 (CDR LIFE, published 2025).

To fix the notation:
B1: M2638 (bispecific antibody)
heavy: EVQLVESGGGLVQPGGSLRLSCAASGFTFSTYAMNWVRQAPGKGLEWVGRIRSKYNNYATYYADSVKGRFTISRDDSKNTLYLQMNSLRAEDTAVYYCVRHGNFGDSYVSWFAYWGQGTLVTVSSASTKGPSVFPLAPSSKSTSGGTAALGCLVKDYFPEPVTVSWNSGALTSGVHTFPAVLQSSGLYSLSSVVTVPSSSLGTQTYICNVNHKPSNTKVDKKVEPKSCGGGGSQEQLVESGGGLVQPGGSLKLSCKASGFDFSTYGVSWVRQAPGKGLEWIGYIDPVYGSTYYASWVNGRFTISSHNAQNTLYLQLNSLTAADTATYFCVRDLYAGSSGYYMIYSLWGPGTLVTVSSGGGGSGGGGSGGGGSGGGGSELVMTQTPSSVSAAVGGTVTIKCQSSQSVYNNLLGWYQQKPGQPPKLLIYSASTLASGVPSRFSGSGSGTEFTLTISGVQADDAASYYCQGTYYNGDWYYPFGGGTEVVVK
light: QAVVTQEPSLTVSPGGTVTLTCGSSTGAVTTSNYANWVQQKPGKSPRGLIGGTNKRAPGVPARFSGSLLGGKAALTISGAQPEDEADYYCALWYSNHWVFGGGTKLTVLGQPKAAPSVTLFPPSSEELQANKATLVCLISDFYPGAVTVAWKADSSPVKAGVETTTPSKQSNNKYAASSYLSLTPEQWKSHRSYSCQVTHEGSTVEKTVAPTECS
notes: Monovalent Fab-scFv: anti-CD3 Fab with the rabbit anti-pMHC scFv on the C-terminus of the Fab heavy chain; also called rabbit hit M2638; HLA-A*02:01/PRAMExCD3 Fab-scFv
B2: M3202 (bispecific antibody)
heavy: EVQLVESGGGLVQPGGSLRLSCAASGFTFSTYAMNWVRQAPGKGLEWVGRIRSKYNNYATYYADSVKGRFTISRDDSKNTLYLQMNSLRAEDTAVYYCVRHGNFGDSYVSWFAYWGQGTLVTVSSASTKGPSVFPLAPSSKSTSGGTAALGCLVKDYFPEPVTVSWNSGALTSGVHTFPAVLQSSGLYSLSSVVTVPSSSLGTQTYICNVNHKPSNTKVDKKVEPKSCGGGGSDIQMTQSPSSLSASVGDRVTITCRSSQSVYNNLLGWYQQKPGKAPKLLIYSASTLASGVPSRFSGSGSGTDFTLTISSLQPEDSATYYCQGTYYTGDWYYPFGCGTKVEIKGGGGSGGGGSGGGGSGGGGSQVQLVESGGGSVQPGRSLRLSCAASGFDFSTYGVSWVRQAPGKCLEWIGYIDPVYGSTHYADSVKGRFTISRDNSKNTLYLQMNSLRAEDTASYYCVRDLYAGSSGYYMIYSLWGQGTSVTVSS
light: B1 light
notes: Humanized variant of M2638, monovalent Fab-scFv
B3: M3284 (bispecific antibody)
heavy: B2 heavy with D392T, F393V
light: B1 light
notes: as for B2
B4: M3286 (bispecific antibody)
heavy: B2 heavy with D392T, V461A
light: B1 light
notes: as for B2
B5: M3293 (bispecific antibody)
heavy: B2 heavy with L288R
light: B1 light
notes: as for B2
B6: M3285 (bispecific antibody)
heavy: B2 heavy with V461A
light: B1 light
notes: as for B2
B7: M3182 (bispecific antibody)
heavy: B2 heavy with S317F
light: B1 light
notes: as for B2
B8: M2913 (bispecific antibody)
heavy: B2 heavy with R257Q, S317F, T328N, Q365E, R380G, H423Y, D426S, S427W, K429N
light: B1 light
notes: as for B2
B9: M3283 (bispecific antibody)
heavy: B2 heavy with D392T
light: B1 light
notes: as for B2

Substitutions are numbered along the chain they refer to.

This test deals with T1, HLA-A*02:01/PRAME antigen (recombinant, … on HLA-A*02:01) (human, Complex biotinylated for SPR capture; site of biotin and any tag not stated, not in the letters.).
T1 construct: also called PRAME target; pMHC
The test is described as follows: SPR (Biacore 8K), biotinylated pMHC captured, Fab-scFv analyte, single-cycle kinetics, 1:1 fit. As for the experimental part: Recombinantly produced hits in Fab-scFv format, as described in Example 4, were evaluated for their ability to bind HLA-A*02:01/PRAME antigen. Binding characterization was performed by surface plasmon resonance (SPR) using a Biacore™ 8k (Cytiva) device. Briefly, 3000 RU of Biotin CAPture reagent (Cytiva) was immobilized on a Series S Sensor Chip CAP (Cytiva) and the biotinylated ligand HLA-A*02:01/PRAME (SEQ ID NO: 68) was diluted in HPS-EP+ running buffer (TEKNOVA) and captured for 300 s at a flow rate of 2 μL/min at flow cell 2 resulting in a ligand capture level of >100 RU. Subsequently, at least three consecutive analyte injections were performed at suitable concentrations applying the single-cycle-kinetics mode at a flow rate of 30 μL/min with an association time of 90 s and the dissociation time set to >400 s. The chip surface was regenerated according to the manufacturer's instructions. After reference flow cell signal and blank injections subtraction, the data was fit to a 1:1 Langmuir binding model to determine the association rate constant kₐ and dissociation rate constant kd and calculate the equilibrium dissociation constant KD (kd/kₐ), also denoted as affinity, using the Biacore™ Insight Evaluation software.
B1: the Kd (commonly a measure of binding affinity in units of concentration) worked out at 0.23 nM.

On to B2, for which the Kd turned out to be 0.04 nM.

Consider B3, for which the Kd stood at 0.27 nM.

Turning to B4, the Kd amounted to 1.5 nM.

Take B5: the Kd was determined as 0.05 nM.

In the case of B6, the Kd was determined as 1.3 nM.

On to B7, for which the Kd came out at 0.04 nM.

Turning to B8, the Kd was 0.66 nM.

For B9, the Kd came to 0.09 nM.
